Data as given in US20100255003A1.
Each block holds one substance with its values, some of them ahead of it.

Columns and labels:
Assay in all cases: cell-based or functional assay
CD36 (human) = CD36 (human) (UniProt P16671)
[1] = molecular target: Thrombospondin (TSP)-1 (human) (UniProt P07996)
[2] = molecular target: CD51/alphaV integrin (human) (UniProt P06756)
Chain of UniProt P06756 (P06756 31-1048): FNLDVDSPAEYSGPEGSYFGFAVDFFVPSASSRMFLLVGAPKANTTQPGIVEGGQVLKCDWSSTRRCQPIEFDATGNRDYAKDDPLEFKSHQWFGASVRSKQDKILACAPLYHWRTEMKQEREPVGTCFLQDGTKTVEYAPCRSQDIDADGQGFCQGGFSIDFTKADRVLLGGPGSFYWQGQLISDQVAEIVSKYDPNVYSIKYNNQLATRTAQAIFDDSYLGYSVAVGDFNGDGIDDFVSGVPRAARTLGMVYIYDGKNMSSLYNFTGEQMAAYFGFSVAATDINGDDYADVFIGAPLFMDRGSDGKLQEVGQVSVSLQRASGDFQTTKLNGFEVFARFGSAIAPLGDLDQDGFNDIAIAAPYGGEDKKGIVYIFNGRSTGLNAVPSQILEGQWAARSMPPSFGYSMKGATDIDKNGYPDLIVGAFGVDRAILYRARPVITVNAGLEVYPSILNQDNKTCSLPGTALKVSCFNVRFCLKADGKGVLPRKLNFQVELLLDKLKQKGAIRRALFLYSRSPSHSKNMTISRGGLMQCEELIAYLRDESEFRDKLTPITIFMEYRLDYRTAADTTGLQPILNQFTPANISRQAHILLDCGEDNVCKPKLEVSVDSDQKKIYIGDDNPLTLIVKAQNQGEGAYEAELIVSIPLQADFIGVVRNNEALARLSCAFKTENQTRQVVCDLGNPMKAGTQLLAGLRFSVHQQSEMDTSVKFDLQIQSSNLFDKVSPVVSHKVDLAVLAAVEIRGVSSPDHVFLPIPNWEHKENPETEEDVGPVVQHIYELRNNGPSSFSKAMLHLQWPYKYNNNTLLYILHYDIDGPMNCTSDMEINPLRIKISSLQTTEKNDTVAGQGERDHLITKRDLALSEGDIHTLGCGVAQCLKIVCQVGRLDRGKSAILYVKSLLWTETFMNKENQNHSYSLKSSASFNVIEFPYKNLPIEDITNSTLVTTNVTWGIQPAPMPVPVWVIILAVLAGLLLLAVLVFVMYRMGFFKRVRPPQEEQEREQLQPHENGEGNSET

Chain of UniProt P16671 (P16671 2-472): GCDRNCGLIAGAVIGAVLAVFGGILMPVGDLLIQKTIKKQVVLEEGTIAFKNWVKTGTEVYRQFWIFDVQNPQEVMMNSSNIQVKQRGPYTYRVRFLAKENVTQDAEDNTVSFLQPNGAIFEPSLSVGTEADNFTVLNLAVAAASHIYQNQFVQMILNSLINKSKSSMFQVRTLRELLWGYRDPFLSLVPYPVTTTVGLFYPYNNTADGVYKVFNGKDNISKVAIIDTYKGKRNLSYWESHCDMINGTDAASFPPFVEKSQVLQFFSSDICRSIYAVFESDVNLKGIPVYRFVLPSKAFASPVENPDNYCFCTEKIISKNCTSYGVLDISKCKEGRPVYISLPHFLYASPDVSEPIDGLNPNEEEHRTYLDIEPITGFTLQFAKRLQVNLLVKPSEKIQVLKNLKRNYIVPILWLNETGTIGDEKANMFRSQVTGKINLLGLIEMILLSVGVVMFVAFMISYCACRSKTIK
Chain of UniProt P07996 (P07996 19-1170 A84T limits assumed): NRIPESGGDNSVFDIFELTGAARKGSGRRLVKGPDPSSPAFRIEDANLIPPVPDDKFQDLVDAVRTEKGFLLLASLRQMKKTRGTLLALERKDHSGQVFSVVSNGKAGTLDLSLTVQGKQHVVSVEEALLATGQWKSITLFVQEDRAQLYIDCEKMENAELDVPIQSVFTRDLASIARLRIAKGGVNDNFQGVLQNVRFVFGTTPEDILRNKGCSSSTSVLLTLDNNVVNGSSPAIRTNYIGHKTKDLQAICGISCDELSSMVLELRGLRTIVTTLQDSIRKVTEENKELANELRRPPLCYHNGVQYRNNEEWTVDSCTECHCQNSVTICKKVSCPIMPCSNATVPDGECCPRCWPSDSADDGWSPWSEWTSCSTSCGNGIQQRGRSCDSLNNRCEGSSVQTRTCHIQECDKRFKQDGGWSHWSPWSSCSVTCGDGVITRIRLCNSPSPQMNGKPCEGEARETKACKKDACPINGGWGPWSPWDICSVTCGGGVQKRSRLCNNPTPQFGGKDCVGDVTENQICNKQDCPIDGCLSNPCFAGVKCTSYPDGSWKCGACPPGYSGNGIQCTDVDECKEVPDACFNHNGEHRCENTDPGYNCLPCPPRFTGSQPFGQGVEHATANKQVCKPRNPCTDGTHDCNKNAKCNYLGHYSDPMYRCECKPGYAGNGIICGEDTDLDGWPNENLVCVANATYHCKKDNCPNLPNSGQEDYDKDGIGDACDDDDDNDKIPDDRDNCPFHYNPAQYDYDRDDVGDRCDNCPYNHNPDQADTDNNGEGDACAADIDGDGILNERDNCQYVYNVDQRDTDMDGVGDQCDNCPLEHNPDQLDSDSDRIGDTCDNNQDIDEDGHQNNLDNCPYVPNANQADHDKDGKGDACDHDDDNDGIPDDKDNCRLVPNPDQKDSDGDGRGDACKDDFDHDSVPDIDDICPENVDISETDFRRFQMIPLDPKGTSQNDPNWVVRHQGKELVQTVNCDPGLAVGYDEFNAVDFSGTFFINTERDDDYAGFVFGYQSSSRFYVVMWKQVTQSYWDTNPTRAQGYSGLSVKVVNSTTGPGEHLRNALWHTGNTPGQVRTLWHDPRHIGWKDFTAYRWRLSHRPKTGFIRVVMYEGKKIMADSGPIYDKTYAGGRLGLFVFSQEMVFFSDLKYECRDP

- inhibition of apoptotic monocyte endocytosis by immature dendritic cells (percentage of thrombospondin-1-dependent endocytosis) (CD36 (human)): 64 percent
Substance: mouse IgM anti-human CD36 monoclonal antibody (clone SMO; Serotec, Cat. No. MCA722XZ)

- inhibition of apoptotic monocyte endocytosis by immature dendritic cells (percentage of thrombospondin-1-dependent endocytosis) [1]: 90 percent
Substance: azide-free polyclonal goat anti-human thrombospondin-1 N-terminus antibody N-20 (Santa Cruz Biotechnology, Cat No. sc-12312)

- inhibition of apoptotic monocyte endocytosis by immature dendritic cells (percentage of thrombospondin-1-dependent endocytosis) [2]: 24 percent
Substance: mouse anti-CD51/integrin alphaV monoclonal antibody (clone AV1; Chemicon International, Cat. No. MAB2021Z)
